This data set is described as follows: soluble on expression in E. coli; label from the status in PepcDB or PDB records.
As for “MKRIGVVLGRREATPLEFWVGVEGDGLLRLDDLVVVEGFHPQVGQVRFFGMVDHVAKVHEGESFDTDTFLAVEGKIPVSLAYVAHVSVTRILPEEFFPPDPGSPVYLAQEEDLELALYYDAMRNQRGSTKLPAGLLKNGEVAYLNLEFLNGVKGGHVNISGISGVAAKTSYATFLLKSLLESGVLEDAHQARVLLFNVKGEDLFFLDKPNARLTEEARKAYARLGLPATPFQSVAFLAPPKKAGYLPDVDTRLEGVEAYHWDLVQFCQRGLLPFLFADRAAMTNLGFLVAHVTEKLKRLAEGQKGPHLQVEDWPGGEASEGMSFDQLGKARLKSFSDLVRYLEYKLLGPETGEGEGDRGWTARQAKGTLEAFVRRLRSSVENVAHLVRGDRPGSPPDPLSGKAQVHVVDLAKLSPQAQMFVVGSLLKDLFERKERGQYRGRVFIVLDELNKYAPREEESPIKDVLLDIAERGRSLGVILIGAQQTASEVERRVVGNAAIRVVGRLDAAEAERPEYRYLPTSFRQRALILPQGAVILHQPEIPVPLLVHFPFPAWATKREEVLEDNSAEALRREFFR”, the “soluble on expression in E. coli” value is “soluble”. Consider “MSLNDSFNPNENNPAEPSMELVVNGSGINVRSDAGIEHRVVRKASNGDRYKVLAVKNGWYKVGNGEWIFYDPSWIKINYNVPKEEVQKPKEEVQKPKDDITGGWFEGHIRKLNSLGIMQGEGNGVFAPYRNVTRAEFAKLISNALKLPEGNKSFVDINEAHPSLHDGIKRCASAGIINGRGEGIFDPNSPITREEVSIMIDKALRYKGITGELVALPFTDKHLITYKESVQRLYSLKVVNGIGNNEFDPRGTATRGQAAAFIVKMLDSMQKEGHHHHHH”, for which the “soluble on expression in E. coli” value is “soluble”.

Regarding “MGSDKIHHHHHHMFLLPSTITRNVIFISHATPEDNDFTIWLASRLQAEGFEVWIDKQALVGGEKFWQEIDQVIRHKAVKFLLVYSENICYQKQRGILKNGVAKEISMAEGIATTNGLKDFMILLNVDGSEYNLFIGADTLNQVPFYENWAGGYSQLRKKFKKEGLEPTGSPVGDFSKWYEDEYVIHHGIENLHEIYYDCWWPIPELPESFFVYIFPNNVVASQVHQRSKYPTGKASNILASFYDTSEFEVEIDGQLERIPFTAKHEIKVSDVIARTVRLGFPGTRDVENYFRSLLQRTFHLIMKERHLHWYEMANMKQAYFFSAKSHPKIKFEYPHRATKAGKSKVIFGKHLSSFWHYALSAKPIITPQLAFGLKSHIVFTTDGVKLWDDKAKMHTARRRKGRLMFNEEWRDLLFAFLHALCQGGTTVNIMLNPTFELALKPWTNTYHSDFGYIEPKGQDRHDILAAEYEYQDREDIDPDEVANV”, the “soluble on expression in E. coli” value is “not soluble”. The result for “MKKILLSLLALGCFSAANAQTFRFGPTVGGNLNISDETKTKIGFAVGAKAEMNFNNPENGWFMDASVLFNNRNRQSENYFNNETKLTQCWKYSTYSLLVPVNVGYKFRLSDNLNLLAAVGPYADFGLTGTDKVTTTDAKGHSKEEKMSSNVYGDKLFNRVNFGFDAKVGVEIAKHYQLSLSYSRGFTNIFKGGLNTKAQDLQLGFSYMF” reads “not soluble”.

In the case of “MSLKYEGSISINATKDQILKLLDNPDQVAQCFPGIKSFSKEGEEYKVVGVTGIGFIKGEYRANVRFEKIDDNKRKIIAKGTGMNSNVDIDAIAEALDGKINYSADVKVAGVLASVGARLMGSAVEKIINDLFNCIKERVIKEGHHHHHH”, the “soluble on expression in E. coli” value was “soluble”.

Regarding “MGSDKIHHHHHHTKRWEEGKMSNFEYLTMLNLFAGRTIHDSSSSPIFPRILAKFGDKSVDLQDKTIYRKLDRPVAAQDPVSVEKHKEHYNELKENEEISHLTPYHFGSMCSNRGVVSFFNIRLLPFGEEAIELQDGRFDFPDRLFHNIESGLGLGKIESSNDYKELVPELFTTVEVLRNDNGNQFGEKQNGETVNDVDVPQWCYMDEKAVHENFIYLHRHALESEIVQSMLHHWIDLVFGYKSRGKSAHDAINVYHPAVYPGNSPPPSFDRVMTNAYEANQKTLGTAPIQLFTQSHPKR”, the “soluble on expression in E. coli” value was “not soluble”. For the sequence “MRSFDFAPLHRASIGFDQIADLMDRVMSSDVGQPSYPPYNIEKTAADAYRISIAVAGFAETDLSVEVKENALVISARKAADEAERTFLHRGIATRAFERRFTLADHVRVTGASHENGMLHIDLKREIPEALKPRRIEIASVKSADTPERIEAKAVN”, the “soluble on expression in E. coli” value was “not soluble”.

As to “MGSDKIHHHHHHMSEEIELKFIVHPDSVESLLTQLAEWESDYSQYEHMRAQRLSNIYYETADNYLRRNGIGLRIRGENERYEMTAKTAGKVIGGLHQHPEYNVALETAELDLSLFPAEIWPEDCDVKTLQPSLNPLFSTDFTREKWVFTYYQSVIEVALDRGEIRAGDLSEPLCELEMELKVGQTTHLLALAKEIAEFGGMRQGSLSKAARGYHLAKGNPVRECLPLNRLVVDSKTNIDQAIRAALELALSHWQYHEELWVRGDSSAREALPQASALMREMLVLVGGVVLRRVTTLFRSALSTLENRLQGSGGSEICYSTDYLQSKLVLTSWLVESGWRDYMDNKDRIKLQGSFKRFADIMLSRSTAELKSAFSSKLTAEQYEQQIPRLQRNLYAFLLLSGAYPADQVEAYVEHWQTLLQEIEHLAVDQAPSVYLEAYRKEVLTLPPFWLHSGGPSQ”, the “soluble on expression in E. coli” value is listed as “not soluble”. The result for “MSLARPLSFHEDRLFPSDPATRSYARGLYALVKDLPIISPHGHTDPSWFATNAPFQDATDLLLAPDHYLFRMLYSQGVSLDALKVRSKAGVPDTDPREAWRVFASHFYLFRGTPSWVWLNHVFSQVFGFTEFLEASNADDYFDRITAALATDAFRPRALFDRFNIETLATTEGPHESLQHHAAIRESGWGGHVITAYRPDAVIDFEDERSPRAFERFAETSGQDVYSWKSYLEAHRLRRQAFIDAGATSSDHGHPTAATADLSDVEAEALFNSLVKGDVTPEKAELFRAQMLTEMAKMSLDDGLVMQIHPGSHRNHNVGLLNSHGRDKGADIPMRTEYVDALKPLLTRLGNDPRLSIILFTLDETTYSRELAPLAGHYPVLKLGPSWWFHDSPEGMMRFREQVTETAGFYNTVGFNDDTRAFLSIPARHDVARRVDSAFLARMVAEHRMDLVEAEELIVDLTYNLPKKAYKLDQRPDWARPATLRAAAEEGHHHHHH” reads “soluble”; that for “MTVSSSAWMPRLISQQILSEYVKSLEVEADKVVIPGQNTPVFSWDRDGNGNLSIDTPLLKVRGESLATQADLTTISLTPGPKGELWQTSVERLDIKVDKHISLTFKNGVRID”, “not soluble”. Consider “MSTIIDVYAREVLDSRGNPTVEVEVYTESGAFGRAIVPSGASTGEHEAVELRDGDKSRYLGKGVMNAVNNVNEAIAPEIVGFDVTDQAGIDRAMIELDGTPNKGKLGANAILGVSMAVAHAAADFVGLPLYRYLGGFNAKQLPTPMMNIINGGSHADNNVDFQEFMILPVGAPTFKESIRMGAEVFHALKAVLHDKGLNTAVGDEGGFAPNLGSNREALEVIIEAIEKAGYKAGENVFLGMDVASSEFYNKETGKYDLAGEGRTGLTSAEMVDFYEELCKDFPIISIEDGLDENDWDGHKLLTERIGDKVQLVGDDLFVTNTQKLAEGIEKGISNSILIKVNQIGTLTETFEAIEMAKRAGYTAVVSHRSGETEDATIADIAVATNAGQIKTGSMSRTDRIAKYNQLLRIEDELGEIAVYDGIKSFYNIKR”, for which the “soluble on expression in E. coli” value is recorded as “soluble”. With “SESQTLDKVYQMKSKPRGYCLIINNHNFAKAREKVPKLHSIRDRNGTHLDAGALTTTFEELHFEIKPHDDCTVEQIYEILKIYQLMDHSNMDCFICCILSHGDKGIIYGTDGQEAPIYELTSQFTGLKCPSLAGKPKVFFIQACQGDNYQKGIPVETASEEQPYLEMALSSPQTRYIPDEADFLLGMATVNNCVSYRNPAEGTWYIQSLCQSLRERCPRGDDILTILTEVNYEVSNKDDKKNMGKQMPQPTFTLRKKLVFPSDVEHHHHHH”, the “soluble on expression in E. coli” value is listed as “soluble”.

Take “MLTIGGKSFQSRLLLGTGKYPSFDIQKEAVAVSESDILTFAVRRMNIFEASQPNFLEQLDLSKYTLLPNTAGASTAEEAVRIARLAKASGLCDMIKVEVIGCSRSLLPDPVETLKASEQLLEEGFIVLPYTSDDVVLARKLEELGVHAIMPGASPIGSGQGILNPLNLSFIIEQAKVPVIVDAGIGSPKDAAYAMELGADGVLLNTAVSGADDPVKMARAMKLAVEAGRLSYEAGRIPLKQYGTASSPGEGLP”: the “soluble on expression in E. coli” value is recorded as “soluble”.

For the origin of these results see the DeepSol protein solubility set.
